Results as given in PMC8441438, “Dynamic regulation of mitotic ubiquitin ligase APC/C by coordinated Plx1 kinase and PP2A phosphatase action on a flexible Apc1 loop” (The EMBO Journal, 2021).
Residue numbers refer to the chain shown, from its start. Names may count otherwise. Non-standard residues stand in square brackets, D forms with d. pT = C[C@@H](OP(=O)(O)O)[C@H](N)C(=O)O; pS = N[C@@H](COP(=O)(O)O)C(=O)O

B1: MBP-fused Apc1-loop^500 WT phosphorylated by Cdk2/cyclin A (domain or fragment, Xenopus tropicalis, UniProt Q08D52 515-584, looked up)
chain: GLAAPSLGMSNPMPRPSTPLESIS[pT]PAKPLNKHLAPMDEAGML[pS]PVPELRDSTRLHESTYLDDCTFHQFG
modifications: not fully specified (residue 18, N-terminus); also: MBP fusion, pT532 only in upper of two bands (partial), phosphorylated in vitro by Cdk2/cyclin A
notes: Apc1, Xenopus tropicalis, loop^500, residues 515-584; After phosphorylation the protein runs as two bands; only the upper one carries pT532; also called Apc1-loop^500 (CDK^+); phosphorylated MBP-Apc1-loop^500; source: recombinant, purified, then phosphorylated in vitro with purified Cdk2/cyclin A at 30°C for 2 h; not shown: MBP, N-terminal, kept
B2: MBP-fused Apc1-loop^500 T532A phosphorylated by Cdk2/cyclin A (domain or fragment, Xenopus tropicalis, UniProt Q08D52 515-584, looked up)
chain: GLAAPSLGMSNPMPRPSAPLESISTPAKPLNKHLAPMDEAGMLSPVPELRDSTRLHESTYLDDCTFHQFG
modifications: also: MBP fusion, phosphorylated in vitro by Cdk2/cyclin A, sites not given here
notes: Apc1, Xenopus tropicalis, loop^500, residues 515-584; source: recombinant, purified, then phosphorylated in vitro with purified Cdk2/cyclin A; not shown: MBP, N-terminal, kept
B3: MBP-fused Apc1-loop^500 E562A (domain or fragment, Xenopus tropicalis, UniProt Q08D52 515-584, looked up)
chain: B2 chain with A18T, E48A
notes: Apc1, Xenopus tropicalis, loop^500, residues 515-584; source: recombinant, purified as described previously (Fujimitsu & Yamano, 2020); not shown: MBP, N-terminal, kept
B4: MBP-fused Apc1-loop^500 WT fragment (domain or fragment, Xenopus tropicalis, UniProt Q08D52 515-584, looked up)
chain: B2 chain with A18T
notes: Apc1 (APC/C subunit 1), Xenopus tropicalis, loop^500, residues 515-584; Added unphosphorylated; becomes phosphorylated at CDK sites T532, T539 and S558 when incubated in anaphase egg extracts; MBP is PreScission-cleavable and His6 TEV-cleavable; also called MBP-Apc1-loop^500; CDK^- Apc1-loop^500; source: recombinant, purified as described previously (Fujimitsu & Yamano, 2020); not shown: MBP, …
B5: Plx1-PBD WT (polo-box domain of Plx1) (domain or fragment, Xenopus laevis, UniProt P70032 362-598, looked up)
chain: EPADCYLSEMLQQLTCLNAVKPSERALIRQEEAEDPASIPIFWISKWVDYSDKYGLGYQLCDNSVGVLFNDSTRLIMYNDGDSLQYIERNNTESYLNVRSYPTTLTKKITLLKYFRNYMSEHLLKAGANTTPREGDELARLPFLRTWFRTRSAIILHLSNGTVQINFFQDHTKIILCPLMAAVSYIDEKREFRTYKLSLIQEFGCCKELASRLRYARTMVEKLQSSKSAVAHVKASA
notes: Plx1, Xenopus laevis, polo-box domain, amino acids 362-598; 3xFlag is PreScission-cleavable, His6 TEV-cleavable; cleavage is not reported; also called WT Plx1-PBD; source: E. coli BL21-CodonPlus (DE3), purified (Ni-NTA agarose)

Assays:
Settings in all cases: both partners purified
[1] = biological target: B5; assay: pull-down; purified proteins only: MBP-fused Apc1-loop^500 incubated with or without purified Cdk2/cyclin A (30°C, 2 h, 1 mM ATP), bound to amylose beads, incubated with Plx1-PBD at 4°C (on ice) for 10 min in XB^CSF with 0.01% NP-40 without EGTA; Coomassie staining
[2] = biological target: B5; assay: pull-down; dissociation assay: Plx1-PBD/MBP-Apc1-loop^500 complexes formed in anaphase extracts, isolated on amylose beads and incubated with (78 nM) or without purified PP2A-B56γ at 23°C for 30 or 60 min; PBD left on the beads by Coomassie staining
[3] = biological target: B5; assay: pull-down; MBP-fused Apc1-loop^500 on amylose beads incubated in anaphase extracts at 23°C for 1 h, then purified Plx1-PBD (10 µg or indicated amounts) added to the extract for 15 min; bound proteins by SDS-PAGE and Coomassie staining
[4] = biological target: B4; assay: as above

Question: Does B1 bind [1]?
Answer: binds

Question: Does B2 bind [1]?
Answer: binds

Question: Does B3 bind [2]?
Answer: binds

Question: Does B4 bind [3]?
Answer: binds

Question: B5 was tested. Which “stoichiometry N” value [4] did it give?
Answer: > 1 Plx1-PBD per Apc1-loop^500
